Test results as given in publication PMC11624268, “Leishmania protein KMP-11 modulates cholesterol transport and membrane fluidity to facilitate host cell invasion” (EMBO Reports, 2024).
Where a chain is given by its changes, count along the chain named. In names and notes the source's numbering stands.

B1: purified recombinant KMP-11 (kinetoplastid membrane protein-11), wild type (natural protein)
chain: MATTYEEFSAKLDRLDQEFNRKMQEQNAKFFADKPDESTLSPEMREHYEKFERMIKEHTEKFNKKMHEHSEHFKQKFAELLEQQKAAQYPSK
notes: amino-terminal stretch (1-19) of kinetoplastid membrane protein-11 (KMP-11), Leishmania donovani (so in the source); rest of kinetoplastid membrane protein-11 (KMP-11), Leishmania donovani, after the printed stretch 1-19; Purification by the procedure of Sharma et al, 2013; also called r-KMP-11; WT KMP-11; source: pET28a, bacterial culture, purified (Ni-NTA, endotoxin removal column, gel …)
B2: Alexa488-maleimide labeled r-KMP-11 S38C (kinetoplastid membrane protein-11, single cysteine mutant) (natural protein)
chain: B1 chain with S38C
modifications: Alexa-488 maleimide on the single cysteine (S38C); labeling percentage 86%
notes: amino-terminal stretch (1-19) of kinetoplastid membrane protein-11 (KMP-11), Leishmania donovani (so in the source); rest of kinetoplastid membrane protein-11 (KMP-11), Leishmania donovani, after the printed stretch 1-19; The labeled protein was passed through Ni NTA after labeling, so the tag was probably still there; Purification by the procedure of Sharma et al, 2013; also called …

Legend:
[1] = target: the molecule itself; test: negative stain TEM; purified KMP-11 (0.1 mg/ml) in the presence of DPPC ERG (30%) SUVs; 50 mM tris pH 8.0, 150 mM NaCl; 1% uranyl acetate
[2] = target: the molecule itself; test: single molecule photobleaching step analysis (TIRF microscopy); 50 nM Alexa-488 maleimide labeled KMP-11 (S38C) on PEG cushioned supported bilayer of DPPC-ERG (30%); 30 min incubation; manual step counts from 235 spots
[3] = target: B1; test: fluorescence correlation spectroscopy (FCS); 50 nM Alexa488Maleimide labeled r-KMP-11 in the presence of unlabeled r-KMP-11 at different total concentrations; diffusion time read out; in the absence and presence of different salt concentrations (salt facilitates self-association); conditions: both partners purified

Binder | stoichiometry N [1] | stoichiometry N [2] | binding result [3]
B1 | 4 | – | –
B2 | – | 4 | binds
